In paper PMC6477179 (2019) one finds Kd data, which are given here for one molecule.

The experiment has as its target GST-p62 FIR (aa 326-380) (human, UniProt Q13501 326-380). Briefly: SPR. For orientation: SPR reads the build-up and loss of mass on a sensor chip optically.

For orientation: Kd means a measure of binding affinity in units of concentration.

B1: FIP200 CTR (aa 1458-1594) (domain or fragment)
chain: RIMLLERTLQLKEEENKRLNQRLMSQSMSSVSSRHSEKIAIRDFQVGDLVLIILDERHDNYVLFTVSPTLYFLHSESLPALDLKPGEGASGASRRPWVLGKVMEKEYCQAKKAQNRFKVPLGTKFYRVKAVSWNKKV
Regarding B1, the Kd was found to be 5.1 µM.
